Results from PMC11161652, “ASXLs binding to the PHD2/3 fingers of MLL4 provides a mechanism for the recruitment of BAP1 to active enhancers” (Nature Communications, 2024).
Where two headings read alike, the source gives them in different places. Each block holds one molecule with its values, some of them ahead of it. Ends that are not written are not given here.

Experiments:
[1] = target: T1, MLL4PHD2/3 (Homo sapiens, UniProt O14686); assay: NMR titration binding, WT MLL4PHD2/3; conditions: 0.1 mM protein; for binding in NMR titration (CSPs): 1H,15N HSQC, pH 6.8, 298 K, in words
T1 construct: MLL4 (aa 227-324); GST (N, cleaved yes); made in house; host or cells: E. coli BL21-CodonPlus
T1 sequence (O14686 227-324): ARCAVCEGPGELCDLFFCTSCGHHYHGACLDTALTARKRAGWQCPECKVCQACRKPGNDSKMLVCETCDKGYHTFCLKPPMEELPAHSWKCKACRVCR
Method: (§1) All constructs were expressed in BL21-CodonPlus competent cells.
(§2) For NMR titration experiments, ^1H,^15N HSQC spectra of 0.1 mM uniformly ^15N-labeled WT or mutated MLL4PHD2/3, MLL3PHD2/3 or MLL3PHD4 were recorded while WT or mutated ASXL2 (aa 650-670, 650-664, 656-670) and ASXL3 (aa 1047-1067) peptides (synthesized by SynPeptide) or MLL3PHD2/3 were added stepwise. All experiments were carried out in 20 mM Tris buffer (pH 6.8), 150 mM NaCl, and 3 mM DTT, containing 7% D2O. The dissociation constants (Kds) were determined by a nonlinear least-squares analysis in GraphPad Prism using the equation:1 △δ=△δmaxL+P+Kd−L+P+Kd^2−4PL/2P where [L] is concentration of the peptide, [P] is concentration of the protein, Δδ is the observed chemical shift change, and Δδmax is the normalized chemical shift change at saturation. Normalized chemical shift changes were calculated using the equation Δδ=△δH^2+△sn/5^2 (2), where Δδ is the change in chemical shift in parts per million (ppm).

[2] = target: T2, MLL3PHD2/3 (Homo sapiens, UniProt Q8NEZ4); assay: NMR titration binding, WT MLL3PHD2/3; conditions: 0.1 mM protein
T2 construct: human MLL3 (aa 342-439); GST (N, cleaved yes); made in house; host or cells: E. coli BL21-CodonPlus
T2 sequence (Q8NEZ4 342-439): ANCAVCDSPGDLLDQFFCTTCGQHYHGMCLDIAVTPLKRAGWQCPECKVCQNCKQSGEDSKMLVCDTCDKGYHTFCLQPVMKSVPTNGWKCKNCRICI
Method: as §1, §2

[3] = test system: GST-MLL3PHD2/3; assay: GST pull-down, WT MLL3PHD2/3; assay type: binding, human; conditions: WT GST-MLL3PHD2/3; HEK293FT lysate, 3 h at 4 °C, western blot; n = 3
Method: (§3) Pull-down assays were performed by mixing resin-bound GST-MLL3PHD2/3 and GST-MLL4PHD2/3 (wild type and mutants) with lysates of HEK293FT expressing Myc-ASXL1, Myc-ASXL2 or Myc-ASXL2ΔMBH. Pellets of HEK293FT cells transfected with the appropriate pDEST expression construct (15 μg/dish using polyethylenimine (PEI)) were lysed with 10 times their volume of lysis buffer (50 mM Tris pH 7.3, 100 mM NaCl, 1 mM DTT, 1 mM EDTA, 1 mM PMSF, 0.1% Tween20, 1/100 anti-protease (Sigma)) and sonicated with a probe sonicator (Branson digital sonifier 450) calibrated at 40% amplitude for 3–4 rounds during 40–60 s. Lysates were then centrifuged in a Sorvall Lynx 6000 (rotor: F21-8x50Y) at 15,000 RPM during 20 min. Approximatively 9 μg of purified GST-fusion proteins bound to GSH resin (Sigma, G4510) were used for each condition. Final volume of GSH resin was adjusted to 30 μl per condition with empty GSH beads and incubated with 1.5 mL of HEK293FT lysate expressing Myc-ASXL1, Myc-ASXL2 or Myc-ASXL2ΔMBH for 3 h at 4 °C on a rotative system. A fraction of the reaction mixture (80 μL) was collected as the input. After the incubation, beads were washed 5 times and mixed with 100 μL of Laemmli buffer. Samples were loaded on 8% or 15% SDS-acrylamide gels and processed for western blotting.

[4] = test system: MLL4PHD2/3 or MLL3PHD2/3 mutants; assay: GST pull-down, mutated MLL3/4PHD2/3; assay type: binding, human; conditions: mutated GST-MLL3/4PHD2/3; HEK293FT lysate, 3 h at 4 °C, western blot; n = 3
Method: as §3

[5] = test system: GST-MLL4PHD2/3; assay: GST pull-down, WT MLL4PHD2/3; assay type: binding, human; conditions: WT GST-MLL4PHD2/3; HEK293FT lysate, 3 h at 4 °C, western blot; n = 3
Method: as §3

[6] = target: T3, PHD2 and PHD3 fingers of human MLL3 (aa 342-439) (human, UniProt Q8NEZ4 342-439); assay: other fluorescence titration; tryptophan fluorescence, 25 °C; 1.0 µM MLL4 PHD2/3 or MLL3 PHD2/3 with increasing peptide; excitation 295 nm; 20 mM Tris pH 7.2, 150 mM NaCl, 1 mM TCEP, 0.02% Tween20; average of three measurements; conditions: both partners purified
T3 construct: PHD2 and PHD3 fingers of human MLL3 (KMT2C), aa 342-439; 15N-labelled for NMR titrations; also used unlabelled as the titrant against MLL3 PHD4; also called MLL3_(PHD2/3); MLL3 PHD2/3; source: E. coli BL21-CodonPlus, purified (glutathione agarose, PreScission cleavage; unlabeled proteins also SEC)
T3 sequence (looked up): T2 sequence (Q8NEZ4 342-439)

[7] = target: T4, PHD2 and PHD3 fingers of human MLL4 (aa 227-324) (human, UniProt O14686 227-324); assay: as above; conditions: both partners purified
T4 construct: PHD2 and PHD3 fingers of human MLL4 (KMT2D), aa 227-324; also called MLL4_(PHD2/3); MLL4 PHD2/3; source: E. coli BL21-CodonPlus, purified (glutathione agarose, PreScission cleavage; unlabeled proteins also SEC)
T4 sequence (looked up): T1 sequence (O14686 227-324)

[8] = target: T4, PHD2 and PHD3 fingers of human MLL4 (aa …); assay: not stated; fluorescence spectroscopy or NMR: the legends of Fig. 3c and Fig. 4b say that values marked (a) are from NMR and the others from fluorescence; the text does not tell which for these pairs; conditions: both partners purified
[9] = target: T5, PHD2 and PHD3 fingers of human MLL3 (aa 342-439) (human, UniProt Q8NEZ4 342-439)
T5 chain: T2 sequence (Q8NEZ4 342-439)

[10] = NMR, 1H,15N HSQC titration, 20 mM Tris pH 6.8, 150 mM NaCl, 298 K

binding in NMR titration (CSPs) [1]: abrogated binding
Kd [1, 10]: no binding
binding in NMR titration (CSPs) ([2]; 1H,15N HSQC, pH 6.8, 298 K, in words): did not form the complex
Kd [2, 10]: no binding
Molecule: ASXL2 K661E: K661E mutated ASXL2 peptide (residues 650-670) (NRTGARTLADIEAKAQLVKAQ)

Molecule: ASXL1 peptide: ASXL1 peptide; the ASXL1 region encompassing residues 607-627 (GWTGARTLADIKARALQVRGA)
binding in NMR titration (CSPs) [1]: large CSPs, confirming formation of the complex

Molecule: RNTGARTLADIKARAQQARAQ [ASXL3 1047-1067]
binding in NMR titration (CSPs) [1]: large CSPs, confirming formation of the complex

Molecule: full-length ASXL1: full-length ASXL1 expressed in HEK293FT cells
association in pull-down [3]: detected
association in pull-down [4]: not with the MLL4PHD2/3 or MLL3PHD2/3 mutants
association in pull-down [5]: detected

Kd [6]: 133 µM
Kd [7]: 700 µM
B1: ASXL2 peptide, residues 656-670 (peptide, UniProt Q76L83 656-670, looked up)
peptide: TLADIKAKAQLVKAQ
notes: ASXL2, residues 656-670; also called ASXL2_(656-670); ASXL2 (aa 656-670); source: synthetic peptide (SynPeptide)

Kd [6]: 0.9 µM
Kd [7]: 1.4 µM
B2: ASXL3 peptide (aa 1047-1067) (peptide, UniProt Q9C0F0 1047-1067, looked up)
peptide: RNTGARTLADIKARAQQARAQ
notes: ASXL3, residues 1047-1067; also called ASXL3 (aa 1047-1067); source: synthetic peptide (SynPeptide)

Kd [6]: 28 µM
Kd [7]: 98 µM
B3: ASXL2 peptide, residues 650-664 (peptide, UniProt Q76L83 650-664, looked up)
peptide: NRTGARTLADIKAKA
notes: ASXL2, residues 650-664; also called ASXL2_(650-664); ASXL2 (aa 650-664); source: synthetic peptide (SynPeptide)

Kd [8]: 1100 µM
Kd [9]: 84 µM
binding result [6]: binds
B4: ASXL2 peptide (aa 650-670) I660E (peptide, UniProt Q76L83 650-670, looked up)
peptide: NRTGARTLADEKAKAQLVKAQ
notes: ASXL2, residues 650-670; also called I660E mutant of ASXL2; source: synthetic peptide (SynPeptide)
